Laboratory results reported in publication PMC11476584.

B1: Mitochondrial import receptor subunit TOM40 (TOMM40) (natural protein)
chain: MGNVLAASSPPAGPPPPPAPALVGLPPPPPSPPGFTLPPLGGSLGAGTSTSRSSERTPGAATASASGAAEDGACGCLPNPGTFEECHRKCKELFPIQMEGVKLTVNKGLSNHFQVNHTVALSTIGESNYHFGVTYVGTKQLSPTEAFPVLVGDMDNSGSLNAQVIHQLGPGLRSKMAIQTQQSKFVNWQVDGEYRGSDFTAAVTLGNPDVLVGSGILVAHYLQSITPCLALGGELVYHRRPGEEGTVMSLAGKYTLNNWLATVTLGQAGMHATYYHKASDQLQVGVEFEASTRMQDTSVSFGYQLDLPKANLLFKGSVDSNWIVGATLEKKLPPLPLTLALGAFLNHRKNKFQCGFGLTIG
B2: Lon protease (LONP1) (enzyme)
chain: FWEASSRGGGAFSGGEDASEGGAEEGAGGAGGSAGAGEGPVITALTPMTIPDVFPHLPLIAITRNPVFPRFIKIIEVKNKKLVELLRRKVRLAQPYVGVFLKRDDSNESDVVESLDEIYHTGTFAQIHEMQDLGDKLRMIVMGHRRVHISRQLEVEPEEPEAENKHKPRRKSKRGKKEAEDELSARHPAELAMEPTPELPAEVLMVEVENVVHEDFQVTEEVKALTAEIVKTIRDIIALNPLYRESVLQMMQAGQRVVDNPIYLSDMGAALTGAESHELQDVLEETNIPKRLYKALSLLKKEFELSKLQQRLGREVEEKIKQTHRKYLLQEQLKIIKKELGLEKDDKDAIEEKFRERLKELVVPKHVMDVVDEELSKLGLLDNHSSEFNVTRNYLDWLTSIPWGKYSNENLDLARAQAVLEEDHYGMEDVKKRILEFIAVSQLRGSTQGKILCFYGPPGVGKTSIARSIARALNREYFRFSVGGMTDVAEIKGHRRTYVGAMPGKIIQCLKKTKTENPLILIDEVDKIGRGYQGDPSSALLELLDPEQNANFLDHYLDVPVDLSKVLFICTANVTDTIPEPLRDRMEMINVSGYVAQEKLAIAERYLVPQARALCGLDESKAKLSSDVLTLLIKQYCRESGVRNLQKQVEKVLRKSAYKIVSGEAESVEVTPENLQDFVGKPVFTVERMYDVTPPGVVMGLAWTAMGGSTLFVETSLRRPQDKDAKGDKDGSLEVTGQLGEVMKESARIAYTFARAFLMQHAPANDYLVTSHIHLHVPEGATPKDGPSAGCTIVTALLSLAMGRPVRQNLAMTGEVSLTGKILPVGGIKEKTIAAKRAGVTCIVLPAENKKDFYDLAAFITEGLEVHFVEHYREIFDIAFPDEQAEALAVER

Biological target: Apolipoprotein E4 (APOE4), overexpressed in transfected Huh7 cells (human) (UniProt P02649)
Chain of UniProt P02649 (P02649 19-317): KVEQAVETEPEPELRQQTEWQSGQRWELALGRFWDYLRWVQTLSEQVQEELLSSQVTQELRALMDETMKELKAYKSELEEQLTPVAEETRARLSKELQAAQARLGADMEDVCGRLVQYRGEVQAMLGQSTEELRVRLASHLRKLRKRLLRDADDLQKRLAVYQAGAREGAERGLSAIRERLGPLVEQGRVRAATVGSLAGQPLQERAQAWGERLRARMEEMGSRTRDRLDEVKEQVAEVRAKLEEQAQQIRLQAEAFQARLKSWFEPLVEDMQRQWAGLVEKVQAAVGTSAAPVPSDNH
Assay: co-IP; APOE precipitated with anti-APOE antibody (sc-13521) and Protein G Sepharose, overnight at 4 °C, from lysates of APOE3- and APOE4-transfected Huh7 cells; Western blot, target bands normalised to the APOE signal

| Molecule | fold change of the target/APOE band against APOE3-transfected cells [fold] |
| --- | --- |
| Voltage-dependent anion-selective channel 1 (VDAC1) (from UniProt P21796 1-283) (natural protein) | 1.2 |
| B1 | 1.29 |
| B2 | 2.11 |
